Measurements: patent US6391637

What was measured:
[1] = biological target: CD40/Fc fusion protein (human) (UniProt P25942); test: BIAcore biosensor; CD40/Fc captured on the chip; second experiment
[2] = biological target: CD40/Fc fusion protein (human) (UniProt P25942); test: BIAcore biosensor; CD40/Fc captured on the chip; second experiment; K2 (site 2); site 1 not detected
[3] = biological target: CD40/Fc fusion protein (human) (UniProt P25942); test: BIAcore biosensor; CD40/Fc captured on the chip; second experiment; K2 (site 2)
[4] = biological target: CD40/Fc fusion protein (human) (UniProt P25942); test: BIAcore biosensor; CD40/Fc captured by goat anti-human IgG1 Fc on the chip, CD40-L construct at increasing concentrations; first experiment
[5] = biological target: CD40/Fc fusion protein (human) (UniProt P25942); test: BIAcore biosensor; CD40/Fc captured on the chip; first experiment; K1 (site 1)
[6] = biological target: CD40/Fc fusion protein (human) (UniProt P25942); test: BIAcore biosensor; CD40/Fc captured on the chip; second experiment; K1 (site 1)
[7] = biological target: CD40/Fc fusion protein (human) (UniProt P25942); test: BIAcore biosensor; CD40/Fc captured on the chip; first experiment; K2 (site 2)
[8] = biological target: CD40/Fc fusion protein (human) (UniProt P25942); test: BIAcore biosensor; CD40/Fc captured on the chip; first experiment
[9] = biological target: CD40 on cells that express CD40 (UniProt P25942); test: cell-based or functional assay
Chain of CD40 on cells that express CD40 (P25942 21-277 limits assumed): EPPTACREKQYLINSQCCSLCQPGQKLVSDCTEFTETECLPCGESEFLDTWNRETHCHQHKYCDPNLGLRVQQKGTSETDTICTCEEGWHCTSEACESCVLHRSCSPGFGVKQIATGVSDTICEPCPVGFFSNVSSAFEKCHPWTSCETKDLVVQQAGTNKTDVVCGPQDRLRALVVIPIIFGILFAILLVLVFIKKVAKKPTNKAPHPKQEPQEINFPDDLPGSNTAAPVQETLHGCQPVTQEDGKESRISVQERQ

Chain of CD40/Fc fusion protein (human) (P25942 21-193): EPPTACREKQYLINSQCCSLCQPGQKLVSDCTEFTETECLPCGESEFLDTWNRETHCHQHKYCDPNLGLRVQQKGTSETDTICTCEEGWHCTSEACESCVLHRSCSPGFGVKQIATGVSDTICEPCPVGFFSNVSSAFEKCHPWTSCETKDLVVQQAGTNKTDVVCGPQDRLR
Chain of trimeric human CD40-L (oligomerizing zipper fusion, Example 15) (P29965 51-261 limits assumed): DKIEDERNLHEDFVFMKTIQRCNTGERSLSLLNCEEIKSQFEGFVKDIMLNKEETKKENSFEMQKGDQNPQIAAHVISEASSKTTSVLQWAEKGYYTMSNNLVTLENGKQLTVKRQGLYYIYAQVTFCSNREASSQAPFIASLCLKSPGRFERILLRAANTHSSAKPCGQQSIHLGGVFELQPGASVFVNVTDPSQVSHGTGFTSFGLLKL

Substance: monomeric human CD40-L, preparation #1 (ligand)
- Site2 (mol/mol CD40/Fc) (mol/mol CD40/Fc) [1]: 1.2
- Ka [2]: 4.6e+07 M⁻¹

Substance: monomeric human CD40-L, preparation #2 (ligand)
- Site2 (mol/mol CD40/Fc) (mol/mol CD40/Fc) [1]: 1.27
- Ka [2]: 1.1e+07 M⁻¹

Substance: trimeric human CD40-L (oligomerizing zipper fusion, Example 15) (from UniProt P29965 51-261) (ligand)
- Ka [3]: 2.6e+07 M⁻¹
- Site1 (mol/mol CD40/Fc) (mol/mol CD40/Fc) [4]: 0.04
- Ka [5]: 5e+09 M⁻¹
- Site1 (mol/mol CD40/Fc) (mol/mol CD40/Fc) [1]: 0.26
- Site2 (mol/mol CD40/Fc) (mol/mol CD40/Fc) [1]: 0.41
- Ka [6]: 6.6e+08 M⁻¹
- Ka [7]: 7.5e+07 M⁻¹
- Site2 (mol/mol CD40/Fc) (mol/mol CD40/Fc) [8]: 0.68

Substance: trimeric murine CD40-L (oligomerizing zipper fusion) (ligand)
- Ka [5]: 6e+10 M⁻¹
- Ka [7]: 1.6e+08 M⁻¹
- Site1 (mol/mol CD40/Fc) (mol/mol CD40/Fc) [8]: 0.02
- Site2 (mol/mol CD40/Fc) (mol/mol CD40/Fc) [8]: 0.44

Substance: wild type CD40 ligand/zipper domain fusion protein (WT) expressed in yeast
- B-cell proliferation (U/µg), Experiment 1; WT [9]: 77 U/µg
- B-cell proliferation (U/µg), Experiment 2; WT [9]: 15 U/µg
